# Results: patent US20020009436A1, “Methods and compositions for inhibiting adhesion by microorganisms” (priority 1999, published 2002)
# B1: asparaginase: enzyme that catalyzes hydrolysis of the side chain amide group of asparagine to a carboxyl group; E. coli asparaginase (protein, UniProt P00805 23-348, looked up)
# L-asparaginase 2: LPNITILATGGTIAGGGDSATKSNYTVGKVGVENLVNAVPQLKDIANVKGEQVVNIGSQDMNDNVWLTLAKKINTDCDKTDGFVITHGTDTMEETAYFLDLTVKCDKPVVMVGAMRPSTSMSADGPFNLYNAVVTAADKASANRGVLVVMNDTVLDGRDVTKTNTTDVATFKSVNYGPLGYIHNGKIDYQRTPARKHTSDTPFDVSKLNELPKVGIVYNYANASDLPAKALVDAGYDGIVSAGVGNGNLYKSVFDTLATAAKTGTAVVRSSRVPTGATTQDAEVDDAKYGFVASGTLNPQKARVLLQLALTQTKDPQQIQQIFNQY
# Tests used:
# [1] = tested on: S. sobrinus 6715 glucan-binding lectin; test: Aggregation of S. sobrinus with high molecular weight dextran T-2000 (standard rate assay); type: cell-based, Streptococcus sobrinus; details: cells treated with asparaginase
# Procedure: S. sobrinus 6715 was maintained on tryptic soy agar (Difco, Detroit, Mich.) and grown for experiments in Terleckyj's defined medium or tryptic soy broth (TSB) (Difco) pretreated with dextranase (1 mg of enzyme per g dry medium) and invertase (5 mg per g dry medium) for 2 h each in 5% CO2 at 37° C. for 16-18h. Cultures were centrifuged at 12,000×g for 10 min and washed twice with cold phosphate buffered saline (PBS, 20 mM, pH 7.2). Cells were suspended in PBS to an optical density of 0.8 (A540). Cultures grown in TSB were harvested and suspended in PBS and subsequently treated with dextranase for 1 h, followed by washing two times in PBS.
# The standard rate assay published by Drake et al. (Drake D. et al. Infect. Immun. 56:1864-1872 (1988)) was used to study the interaction of S. sobrinus 6715 glucan-binding lectin with high molecular weight dextran. Briefly, bacterial suspensions were adjusted to an optical density of 0.75-0.90 in PBS, and 3-ml suspensions were added to test tubes (13×100 mm). Dextran T-2000 was added at a final concentration of 10 1μg/ml and the suspensions were vortexed for 5 sec. Control tubes received PBS. The decrease in optical density was continuously monitored spectrophotometrically for 5 min. Rate constants were obtained from the slopes of first-order plots of ln A/A0 (A=observed optical density; A0 optical density at time zero) versus time in minutes. […]
# [2] = tested on: type 1-fimbriated and P-fimbriated E. coli; test: Growth inhibition of E. coli; type: cell-based
# Procedure: Similar and/or art recognized methods were used to monitor the effects of asparaginase on growth of other microbes including two strains of E. coli, S. pyogenes, Klebsiella pneumoniae, Bacillus cereus, and Proteus vulgaris. Both type 1-fimbriated and P-fimbriated E. coli were incubated with polyphenol oxidase, asparaginase, and ampicillin to test the ability of these agents to inhibit the growth of the bacteria.
# [3] = tested on: "trypsin-like" protease activity of P. gingivalis; test: Trypsin-like protease activity of P. gingivalis cells (BAPNA); type: cell-based; details: asparaginase 20 U/ml, polyphenol oxidase 80 U/ml
# Procedure: Cell suspensions of P. gingivalis were adjusted up to 1.3 OD at 540 nm in PB. A 100 μl volume of 700 μg/ml BAPNA (benzoyl-DL-arginine-p-nitroanilide) was added to 3 ml of cell suspension. The cells were incubated at 37° C. for different periods of time. The blank contained BAPNA and buffer in the same proportion as P. gingivalis cell suspension. Tubes were centrifuged and the subsequent supernatant was diluted 1:3 and read at 405 nm. Asparaginase and polyphenol oxidase were 20 and 80 U/ml, respectively.
# Influenza A strain H1N1 = test: Hemagglutination of chicken erythrocytes by influenza virus; type: cell-based; details: polyphenol oxidase 70 U/ml or asparaginase 10 U/ml; untreated 256
# [4] = tested on: E. coli / urinary epithelial cells (UECs); test: Binding of E. coli to urinary epithelial cells, microscopy (Experiment 1); type: cell-based; details: FIG. 4; greater with increasing concentration or duration of incubation
# Procedure: Urinary epithelial cells (UEC) were obtained by a method known to those of skill in the art. Briefly, the cells were obtained by centrifugation (5000×g) of 200 ml of clean-catch-collected first morning male urine. Cells were washed 3× in PBS and suspended to a density of 1×10^9 cells/ml in an end-over-end apparatus. After 30 minutes mixtures were collected on polycarbonate filters (pore size=10 μm) and washed with three volumes of cold PBS. Filters were pressed onto glass microscope slides which are then heat-fixed and stained with crystal violet for 2 min. Slides were examined at 1000× with phase-contrast microscopy. For each experimental condition 200 UEC's are examined. Adherent bacteria were quantitated as described in previous Examples.
# [5] = tested on: endogenous bacteria attached to UECs; test: Removal of endogenous biota from sloughed urinary epithelial cells; type: cell-based; details: for Percent UECs with ≧30 Bacteria Attached: PBS 30
# Procedure: Sloughed epithelial cells were incubated with the enzymes, collected by filtration, transferred to microscope slides and stained with crystal violet. Then 50 epithelial cells from each slide were randomly assessed for the numbers of bacteria associated with them and placed into one of four categories: Cells with 0-9, 10-29, 30-49, or >50 bacteria associated with them.
# Candida albicans = test: Adhesion of Candida albicans to buccal cells; type: cell-based; details: 37° C. 60 min, ave ±SE, 5 runs
# S. pyogenes [6] = test: Fibronectin binding assay, S. pyogenes; type: cell-based; details: polyphenol oxidase 80 U/ml, asparaginase 20 U/ml
# Procedure: Wells were filled with human serum fibronectin (50 μg/ml) diluted in carbonate buffer (50 mM Na2CO3—NaHCO3, pH 9.5 overnight). Controls were coated with 1% BSA. The wells were washed three times with PBS and incubated with PBS-Tween (0.5% Tween 20 and 0.05% NaN3) 1 h at 37° C. After attachment, the wells were washed three times with PBS-Tween and allowed to dry. Subsequent assays were as described hereinabove.
# S. pyogenes [7] = tested on: S. pyogenes
# [8] = tested on: A. naeslundii ATCC 12104 (adhesin) / P. intermedia (receptor); test: Coaggregation A. naeslundii ATCC 12104 / P. intermedia; details: P. intermedia (receptor) enzyme treated; polyphenol oxidase 90 U/ml, asparaginase 20 U/ml
# Procedure: (§1) S. sanguis 10556, A. naeslundii strains 12104 and T14V and E. coli were grown static cultures in Todd-Hewitt broth (BBL Microbiology Systems, Cockeysville, Md.). P. gingivalis W50, A. actinomycetemcomitans and C. ochracea were grown in brain heart infusion broth (BBL). F. nucleatum 22586 and P. intermedia 25611 were grown in modified Schaedler broth (BBL). All oral species except S. sanguis 10556 were incubated at 37° C. as static cultures under an anaerobic atmosphere containing H2, CO2 and N2(10:10:80) with GasPaks (BBL). S. sanguis was incubated at 37° C. as static cultures in 5% CO2.
# (§2) Bacteria were harvested in the mid to late exponential growth phase by centrifugation (10,000×g for 10 min at 4° C.). The cells were washed twice in coaggregation buffer (30 mM 3-[N-morpholino]propanesulfonic acid (MOPS), pH 7.0) and adjusted to an optical density of 0.6-0.8 at 540 nm (1-cm path). […]
# (§3) Coaggregation was assessed by turbidity changes. Following mixing of the cells for 10 s on a Vortex mixer, absorbance readings were made every 30 min. The percentage of coaggregation was calculated from the following formula: Percent coaggregation=[OD540(A)+OD540(B)−OD540(A+B)]/(OD540(A)+OD540(B)), where A is the control containing cells of one strain, B is the control containing cells of the other strain, and A+B is the reaction mixture containing both cells. […]
# [9] = tested on: A. naeslundii ATCC 12104 (adhesin) / Capnocytophaga ochracea (receptor); test: Coaggregation A. naeslundii ATCC 12104 / Capnocytophaga ochracea; details: A. naeslundii ATCC 12104 (adhesin) enzyme treated; polyphenol oxidase 90 U/ml, asparaginase 20 U/ml
# Procedure: as §1, §2, §3
# [10] = ampicillin 1 mg/ml to 0.015 mg/ml, polyphenol oxidase 1128 to 17.5 units/ml, asparaginase 20 to 0.31 units/ml, data not shown
molecule,measurement,setting,value
B1,ability of cells to aggregate high molecular weight dextrans,[1],reduced
same,inhibition of growth of two strains of E. coli,[2],did not significantly inhibit growth
same,inhibition of growth of P-fimbriated E. coli,[2]; [10],Neither polyphenol oxidase (1128 units/ml to 17.5 units/ml) or asparaginase (20 units/ml to 0.31 units/ml) concentrations tested were able to inhibit the growth
same,inhibition of growth of type 1-fimbriated E. coli,[2]; [10],Neither polyphenol oxidase (1128 units/ml to 17.5 units/ml) or asparaginase (20 units/ml to 0.31 units/ml) concentrations tested were able to inhibit the growth
same,trypsin-like activity (BAPNA hydrolysis),[3],diminished
same,"Hemagglutination Titers, Dilution of Virus + RBCs (fold)",Influenza A strain H1N1,64 fold
same,binding of bacteria to urinary epithelial cells,[4],reduced binding
same,numbers of UECs with large numbers of endogenous bacteria,[5],little or no effect
same,Percent UECs with ≧30 Bacteria Attached,"[5]; asparaginase 5 U/ml, 30 minute incubation",28%
same,Percent UECs with ≧30 Bacteria Attached,"[5]; asparaginase 10 U/ml, 30 minute incubation",26%
same,effects on the numbers of endogenous bacteria attached to UECs,"[5]; polyphenol oxidase 70 or 140 U/ml, asparaginase 5 or 10 U/ml, 30 minute incubation",relatively minor effects
same,Candida/buccal cell,"Candida albicans; cells, 20 U/ml, control 9.0 ± 3.5",7.0 ± 2
same,Candida/buccal cell,"Candida albicans; cells, 60 U/ml, control 9.0 ± 3.5",4.5 ± 1.5
same,Candida/buccal cell,"Candida albicans; hyphae, 20 U/ml, control 5.1 ± 3.1",3.1 ± 2.0
same,Candida/buccal cell,"Candida albicans; hyphae, 60 U/ml, control 5.1 ± 3.1",1.3 ± 1.2
same,Absorbance (fibronectin),"S. pyogenes [6]; S. pyogenes M4, untreated 0.32",0.15
same,Absorbance (fibronectin),"S. pyogenes [6]; S. pyogenes M24, untreated 0.33",0.21
same,inhibition of growth of S. pyogenes,S. pyogenes [7],did not significantly inhibit growth
same,Inhibition % of coaggregation,[8],23%
same,Inhibition % of coaggregation,[9],25%
